Laboratory results from ChEMBL document CHEMBL2203217, “Prohormone-substrate peptide sequence recognition by peptidylglycine α-amidating monooxygenase and its reflection in increased glycolate inhibitor potency” (Bioorg Med Chem Lett, 2012).

Legend:
[1] = substrate: CC(=O)NCC(=O)O; experiment: (§1) Binding affinity to secreted PAM in human DMS53 cell culture medium after 2 hrs by HPLC analysis; conditions: DMS-53
[2] = substrate: C[C@H](NC(=O)CN)C(=O)N[C@@H](Cc1ccccc1)C(=O)NCC(=O)O; experiment: as §1; conditions: DMS-53
[3] = substrate: C[C@H](N)C(=O)N1CCC[C@H]1C(=O)NCC(=O)O; experiment: as §1; conditions: DMS-53
[4] = substrate: CC(=O)NCC(=O)NCC(=O)O; experiment: as §1; conditions: DMS-53
[5] = substrate: CC[C@H](C)[C@@H]1NC(=O)[C@H](Cc2ccc(O)cc2)NC(=O)[C@@H](N)CSSC[C@@H](C(=O)N2CCC[C@H]2C(=O)N[C@@H](CC(C)C)C(=O)NCC(=O)NCC(=O)O)NC(=O)[C@H](CC(N)=O)NC(=O)[C@H](CCC(N)=O)NC1=O; experiment: as §1; conditions: DMS-53
[6] = substrate: CC(=O)N[C@@H](Cc1ccccc1)C(=O)NCC(=O)O; experiment: as §1; conditions: DMS-53
[7] = substrate: CC(=O)N[C@@H](CC(C)C)C(=O)NCC(=O)NCC(=O)O; experiment: as §1; conditions: DMS-53
[8] = substrate: C[C@H](N)C(=O)N[C@@H](Cc1ccccc1)C(=O)NCC(=O)O; experiment: as §1; conditions: DMS-53
[9] = substrate: N[C@@H](Cc1ccccc1)C(=O)NCC(=O)O; experiment: as §1; conditions: DMS-53
[10] = substrate: C[C@H](NC(=O)CN)C(=O)N1CCC[C@H]1C(=O)NCC(=O)O; experiment: as §1; conditions: DMS-53
[11] = substrate: CC(C)[C@H](N)C(=O)NCC(=O)N[C@@H](C)C(=O)N1CCC[C@H]1C(=O)NCC(=O)O; experiment: as §1; conditions: DMS-53
[12] = substrate: CC(=O)N1CCC[C@H]1C(=O)N[C@@H](CC(C)C)C(=O)NCC(=O)NCC(=O)O; experiment: as §1; conditions: DMS-53
[13] = substrate: CC(C)[C@H](N)C(=O)NCC(=O)N[C@@H](C)C(=O)N[C@@H](Cc1ccccc1)C(=O)NCC(=O)O; experiment: as §1; conditions: DMS-53
[14] = substrate: CC(=O)N[C@@H](CC(C)C)C(=O)N[C@@H](Cc1ccccc1)C(=O)NCC(=O)O; experiment: as §1; conditions: DMS-53
[15] = substrate: CC(=O)N1CCC[C@H]1C(=O)N[C@@H](CC(C)C)C(=O)N[C@@H](Cc1ccccc1)C(=O)NCC(=O)O; experiment: as §1; conditions: DMS-53
[16] = substrate: O=C(O)CNC(=O)[C@@H]1CCCN1; experiment: as §1; conditions: DMS-53
[17] = substrate: CC[C@H](C)[C@@H]1NC(=O)[C@H](Cc2ccc(O)cc2)NC(=O)[C@@H](N)CSSC[C@@H](C(=O)N2CCC[C@H]2C(=O)N[C@@H](CC(C)C)C(=O)N[C@@H](Cc2ccccc2)C(=O)NCC(=O)O)NC(=O)[C@H](CC(N)=O)NC(=O)[C@H](CCC(N)=O)NC1=O; experiment: as §1; conditions: DMS-53
[18] = substrate: CC[C@H](C)[C@H](NC(=O)[C@H](C)NC(=O)[C@@H](NC(=O)[C@H](CCC(N)=O)NC(=O)[C@@H]1CCCN1C(=O)[C@H](Cc1ccccc1)NC(=O)[C@@H](NC(=O)[C@H](Cc1cnc[nH]1)NC(=O)[C@H](Cc1ccccc1)NC(=O)[C@H](CCCCN)NC(=O)[C@H](CC(N)=O)NC(=O)[C@H](Cc1ccccc1)NC(=O)[C@H](CC(=O)O)NC(=O)[C@H](CCC(N)=O)NC(=O)[C@@H](NC(=O)[C@H](Cc1ccc(O)cc1)NC(=O)[C@@H](NC(=O)CNC(=O)[C@H](CC(C)C)NC(=O)[C@H](CCSC)NC(=O)[C@@H]1CSSC[C@H](N)C(=O)NCC(=O)N[C@@H](CC(N)=O)C(=O)N[C@@H](CC(C)C)C(=O)N[C@@H](CO)C(=O)N[C@@H]([C@@H](C)O)C(=O)N1)[C@@H](C)O)[C@@H](C)O)[C@@H](C)O)[C@@H](C)O)C(=O)NCC(=O)N[C@H](C(=O)NCC(=O)N[C@@H](C)C(=O)N1CCC[C@H]1C(=O)NCC(=O)O)C(C)C; experiment: as §1; conditions: DMS-53
[19] = substrate: CC[C@H](C)[C@H](NC(=O)[C@H](C)NC(=O)[C@@H](NC(=O)[C@H](CCC(N)=O)NC(=O)[C@@H]1CCCN1C(=O)[C@H](Cc1ccccc1)NC(=O)[C@@H](NC(=O)[C@H](Cc1cnc[nH]1)NC(=O)[C@H](Cc1ccccc1)NC(=O)[C@H](CCCCN)NC(=O)[C@H](CC(N)=O)NC(=O)[C@H](Cc1ccccc1)NC(=O)[C@H](CC(=O)O)NC(=O)[C@H](CCC(N)=O)NC(=O)[C@@H](NC(=O)[C@H](Cc1ccc(O)cc1)NC(=O)[C@@H](NC(=O)CNC(=O)[C@H](CC(C)C)NC(=O)[C@H](CCSC)NC(=O)[C@@H]1CSSC[C@H](N)C(=O)NCC(=O)N[C@@H](CC(N)=O)C(=O)N[C@@H](CC(C)C)C(=O)N[C@@H](CO)C(=O)N[C@@H]([C@@H](C)O)C(=O)N1)[C@@H](C)O)[C@@H](C)O)[C@@H](C)O)[C@@H](C)O)C(=O)NCC(=O)N[C@H](C(=O)NCC(=O)N[C@@H](C)C(=O)N[C@@H](Cc1ccccc1)C(=O)NCC(=O)O)C(C)C; experiment: as §1; conditions: DMS-53
[20] = substrate: CC(=O)NCC(=O)O; experiment: (§2) Binding affinity to PAM in human DMS53 cells after 2 hrs by HPLC analysis; type: cell-based
[21] = substrate: C[C@H](NC(=O)CN)C(=O)N[C@@H](Cc1ccccc1)C(=O)NCC(=O)O; experiment: as §2; type: cell-based
[22] = substrate: C[C@H](N)C(=O)N1CCC[C@H]1C(=O)NCC(=O)O; experiment: as §2; type: cell-based
[23] = substrate: CC(=O)NCC(=O)NCC(=O)O; experiment: as §2; type: cell-based
[24] = substrate: CC[C@H](C)[C@@H]1NC(=O)[C@H](Cc2ccc(O)cc2)NC(=O)[C@@H](N)CSSC[C@@H](C(=O)N2CCC[C@H]2C(=O)N[C@@H](CC(C)C)C(=O)NCC(=O)NCC(=O)O)NC(=O)[C@H](CC(N)=O)NC(=O)[C@H](CCC(N)=O)NC1=O; experiment: as §2; type: cell-based
[25] = substrate: CC(=O)N[C@@H](Cc1ccccc1)C(=O)NCC(=O)O; experiment: as §2; type: cell-based
[26] = substrate: CC(=O)N[C@@H](CC(C)C)C(=O)NCC(=O)NCC(=O)O; experiment: as §2; type: cell-based
[27] = substrate: C[C@H](N)C(=O)N[C@@H](Cc1ccccc1)C(=O)NCC(=O)O; experiment: as §2; type: cell-based
[28] = substrate: N[C@@H](Cc1ccccc1)C(=O)NCC(=O)O; experiment: as §2; type: cell-based
[29] = substrate: C[C@H](NC(=O)CN)C(=O)N1CCC[C@H]1C(=O)NCC(=O)O; experiment: as §2; type: cell-based
[30] = substrate: CC(C)[C@H](N)C(=O)NCC(=O)N[C@@H](C)C(=O)N1CCC[C@H]1C(=O)NCC(=O)O; experiment: as §2; type: cell-based
[31] = substrate: CC(=O)N1CCC[C@H]1C(=O)N[C@@H](CC(C)C)C(=O)NCC(=O)NCC(=O)O; experiment: as §2; type: cell-based
[32] = substrate: CC(C)[C@H](N)C(=O)NCC(=O)N[C@@H](C)C(=O)N[C@@H](Cc1ccccc1)C(=O)NCC(=O)O; experiment: as §2; type: cell-based
[33] = substrate: CC(=O)N[C@@H](CC(C)C)C(=O)N[C@@H](Cc1ccccc1)C(=O)NCC(=O)O; experiment: as §2; type: cell-based
[34] = substrate: CC(=O)N1CCC[C@H]1C(=O)N[C@@H](CC(C)C)C(=O)N[C@@H](Cc1ccccc1)C(=O)NCC(=O)O; experiment: as §2; type: cell-based
[35] = substrate: O=C(O)CNC(=O)[C@@H]1CCCN1; experiment: as §2; type: cell-based
[36] = substrate: CC[C@H](C)[C@@H]1NC(=O)[C@H](Cc2ccc(O)cc2)NC(=O)[C@@H](N)CSSC[C@@H](C(=O)N2CCC[C@H]2C(=O)N[C@@H](CC(C)C)C(=O)N[C@@H](Cc2ccccc2)C(=O)NCC(=O)O)NC(=O)[C@H](CC(N)=O)NC(=O)[C@H](CCC(N)=O)NC1=O; experiment: as §2; type: cell-based
[37] = substrate: CC[C@H](C)[C@H](NC(=O)[C@H](C)NC(=O)[C@@H](NC(=O)[C@H](CCC(N)=O)NC(=O)[C@@H]1CCCN1C(=O)[C@H](Cc1ccccc1)NC(=O)[C@@H](NC(=O)[C@H](Cc1cnc[nH]1)NC(=O)[C@H](Cc1ccccc1)NC(=O)[C@H](CCCCN)NC(=O)[C@H](CC(N)=O)NC(=O)[C@H](Cc1ccccc1)NC(=O)[C@H](CC(=O)O)NC(=O)[C@H](CCC(N)=O)NC(=O)[C@@H](NC(=O)[C@H](Cc1ccc(O)cc1)NC(=O)[C@@H](NC(=O)CNC(=O)[C@H](CC(C)C)NC(=O)[C@H](CCSC)NC(=O)[C@@H]1CSSC[C@H](N)C(=O)NCC(=O)N[C@@H](CC(N)=O)C(=O)N[C@@H](CC(C)C)C(=O)N[C@@H](CO)C(=O)N[C@@H]([C@@H](C)O)C(=O)N1)[C@@H](C)O)[C@@H](C)O)[C@@H](C)O)[C@@H](C)O)C(=O)NCC(=O)N[C@H](C(=O)NCC(=O)N[C@@H](C)C(=O)N1CCC[C@H]1C(=O)NCC(=O)O)C(C)C; experiment: as §2; type: cell-based
[38] = substrate: CC[C@H](C)[C@H](NC(=O)[C@H](C)NC(=O)[C@@H](NC(=O)[C@H](CCC(N)=O)NC(=O)[C@@H]1CCCN1C(=O)[C@H](Cc1ccccc1)NC(=O)[C@@H](NC(=O)[C@H](Cc1cnc[nH]1)NC(=O)[C@H](Cc1ccccc1)NC(=O)[C@H](CCCCN)NC(=O)[C@H](CC(N)=O)NC(=O)[C@H](Cc1ccccc1)NC(=O)[C@H](CC(=O)O)NC(=O)[C@H](CCC(N)=O)NC(=O)[C@@H](NC(=O)[C@H](Cc1ccc(O)cc1)NC(=O)[C@@H](NC(=O)CNC(=O)[C@H](CC(C)C)NC(=O)[C@H](CCSC)NC(=O)[C@@H]1CSSC[C@H](N)C(=O)NCC(=O)N[C@@H](CC(N)=O)C(=O)N[C@@H](CC(C)C)C(=O)N[C@@H](CO)C(=O)N[C@@H]([C@@H](C)O)C(=O)N1)[C@@H](C)O)[C@@H](C)O)[C@@H](C)O)[C@@H](C)O)C(=O)NCC(=O)N[C@H](C(=O)NCC(=O)N[C@@H](C)C(=O)N[C@@H](Cc1ccccc1)C(=O)NCC(=O)O)C(C)C; experiment: as §2; type: cell-based

B1: Peptidyl-glycine alpha-amidating monooxygenase (Homo sapiens), P19021 (protein)
chain: MAGRVPSLLVLLVFPSSCLAFRSPLSVFKRFKETTRPFSNECLGTTRPVVPIDSSDFALDIRMPGVTPKQSDTYFCMSMRIPVDEEAFVIDFKPRASMDTVHHMLLFGCNMPSSTGSYWFCDEGTCTDKANILYAWARNAPPTRLPKGVGFRVGGETGSKYFVLQVHYGDISAFRDNNKDCSGVSLHLTRLPQPLIAGMYLMMSVDTVIPAGEKVVNSDISCHYKNYPMHVFAYRVHTHHLGKVVSGYRVRNGQWTLIGRQSPQLPQAFYPVGHPVDVSFGDLLAARCVFTGEGRTEATHIGGTSSDEMCNLYIMYYMEAKHAVSFMTCTQNVAPDMFRTIPPEANIPIPVKSDMVMMHEHHKETEYKDKIPLLQQPKREEEEVLDQGDFYSLLSKLLGEREDVVHVHKYNPTEKAESESDLVAEIANVVQKKDLGRSDAREGAEHERGNAILVRDRIHKFHRLVSTLRPPESRVFSLQQPPPGEGTWEPEHTGDFHMEEALDWPGVYLLPGQVSGVALDPKNNLVIFHRGDHVWDGNSFDSKFVYQQIGLGPIEEDTILVIDPNNAAVLQSSGKNLFYLPHGLSIDKDGNYWVTDVALHQVFKLDPNNKEGPVLILGRSMQPGSDQNHFCQPTDVAVDPGTGAIYVSDGYCNSRIVQFSPSGKFITQWGEESSGSSPLPGQFTVPHSLALVPLLGQLCVADRENGRIQCFKTDTKEFVREIKHSSFGRNVFAISYIPGLLFAVNGKPHFGDQEPVQGFVMNFSNGEIIDIFKPVRKHFDMPHDIVASEDGTVYIGDAHTNTVWKFTLTEKLEHRSVKKAGIEVQEIKEAEAVVETKMENKPTSSELQKMQEKQKLIKEPGSGVPVVLITTLLVIPVVVLLAIAIFIRWKKSRAFGDSEHKLETSSGRVLGRFRGKGSGGLNLGNFFASRKGYSRKGFDRLSTEGSDQEKEDDGSESEEEYSAPLPALAPSSS
- Km [1]: 9.9 mM
- Km [2]: 35 µM
- Km [3]: 4 mM
- Km [4]: 1200 µM
- Km [5]: 190 µM
- Km [6]: 16 µM
- Km [7]: 860 µM
- Km [8]: 200 µM
- Km [9]: 6.5 mM
- Km [10]: 3000 µM
- Km [11]: 960 µM
- Km [12]: 550 µM
- Km [13]: 18 µM
- Km [14]: 11 µM
- Km [15]: 7 µM
- Km [16]: 880 µM
- Km [17]: 27 µM
- Km [18]: 200 µM
- Km [19]: 14 µM
- Km [20]: 7.5 mM
- Km [21]: 40 µM
- Km [22]: 5 mM
- Km [23]: 1600 µM
- Km [24]: 36 µM
- Km [25]: 6 µM
- Km [26]: 860 µM
- Km [27]: 180 µM
- Km [28]: 6 mM
- Km [29]: 3000 µM
- Km [30]: 1000 µM
- Km [31]: 660 µM
- Km [32]: 8 µM
- Km [33]: 8 µM
- Km [34]: 6 µM
- Km [35]: 980 µM
- Km [36]: 5 µM
- Km [37]: 200 µM
- Km [38]: 8 µM
